4 molecules from patent US20030027152, “Generation of diagnostic tools to assay the human LHX3/P-LIM/LIM-3 factor” (Indiana University Advanced Research and Technology …, published 2003) can be followed below.

Series [1] deals with T1, GST (UniProt P08515 P08515:1-218). Description: EMSA; GST negative control. The note with it: tags: GST alone, pGEX-KT; label: radiolabel. The protocol:
(§1) FIG. 4B is an image depicting an analysis of recombinant porcine pLhx3 protein binding to DNA target sequences. The image depicts electrophoretic mobility shift assay using labeled wild type and mutant oligonucleotides representing the −351 to −324 bp region of the porcine αGSU gene promoter. Probes were incubated with the indicated proteins and competitor DNA and the resulting complexes were separated from free probe (F) by electrophoresis. The panel on the right of the figure was exposed three times as long as the left-hand panel to detect weak binding of GST-pLhx3 to the porcine αGSU binding site (which is indicated by an arrow).
For orientation: A gel shift assay detects complexes by their altered migration in electrophoresis.

The target in series [2] is T2, GST-ΔLIM pLhx3 (Sus scrofa, UniProt O97581 SEQ:134-383).
T2 chain: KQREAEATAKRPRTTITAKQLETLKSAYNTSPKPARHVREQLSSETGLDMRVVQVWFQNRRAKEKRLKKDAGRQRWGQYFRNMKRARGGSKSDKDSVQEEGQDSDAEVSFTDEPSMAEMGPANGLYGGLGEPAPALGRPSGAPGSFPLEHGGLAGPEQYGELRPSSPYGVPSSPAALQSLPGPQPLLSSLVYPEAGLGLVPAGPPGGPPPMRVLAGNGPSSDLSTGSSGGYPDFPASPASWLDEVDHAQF
The experiment in a line: EMSA; affinity relative to full-length GST-pLhx3 (LIM deletion); competed by unlabeled wild type. The note with it: tags: N-terminal GST (pGEX-KT); label: radiolabel. The protocol:
as §1

The target of series [3] is T2, GST-ΔLIM pLhx3. Description: competition; 200 ng unlabeled mutant did not compete. The note with it: tags: N-terminal GST (pGEX-KT). The protocol:
as §1

In series [4] the target is T3, hLhx3a (Homo sapiens, UniProt Q9UBR4 SEQ:1-397).
T3 sequence: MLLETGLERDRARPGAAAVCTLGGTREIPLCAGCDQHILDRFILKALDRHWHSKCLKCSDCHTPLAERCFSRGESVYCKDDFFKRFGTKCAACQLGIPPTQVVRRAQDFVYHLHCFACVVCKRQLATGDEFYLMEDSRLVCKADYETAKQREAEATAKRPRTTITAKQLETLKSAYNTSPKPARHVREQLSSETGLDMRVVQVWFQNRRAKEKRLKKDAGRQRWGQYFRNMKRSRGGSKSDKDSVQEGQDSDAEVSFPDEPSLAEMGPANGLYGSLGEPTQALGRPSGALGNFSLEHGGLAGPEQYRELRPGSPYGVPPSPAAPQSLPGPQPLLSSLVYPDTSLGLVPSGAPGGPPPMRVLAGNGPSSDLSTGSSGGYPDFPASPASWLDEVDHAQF
Description: EMSA; binds more effectively than hLhx3b. The note with it: label: radiolabel. The protocol:
(§2) Radiolabeled probes were incubated with the indicated proteins and competitor DNAs and the resulting complexes were separated from free probe (F) by electrophoresis. Lane 1, unprogrammed rabbit reticulocyte lysate as a negative control (lysate); lanes 2-5 (hLhx3a; hLhx3b; hLhx3a-myc; and hLhx36-myc, respectively), reactions contained in vitro translated hLhx3 proteins including isoforms comprising a myc tag epitope. A nonspecific band is noted by an asterisk (*). Human Lhx3 protein/DNA complexes are indicated by an arrow. Lane 6 depicts the lack of binding using GST as a negative control; lanes 7-14 (GST-hLhx3a, more GST-hLhx3a, comp plus hLhx3a, GST-hLhx3b; more GST-hLhx3b, comp plus hLhx3b, GST-hLhx3a, and GST-hLhx36, respectively) depict binding of the DNA probe by recombinant hLhx3 proteins expressed in E. coli. “Comp” denotes reactions containing approximately 1000-fold molar excess of unlabeled binding site as a competitor.
(§3) Without wishing to be bound by any particular theory, mechanisms for the different activities include the possibilities that the a-specific and b-specific domains are trans-activation or trans-repression domains, respectively, or that the a- and b-specific domains mediate interaction with distinct regulatory factors, or that the a- and b-specific domains modulate the DNA binding properties of hLhx3 differently. […]

The target in another series is T4, hLhx3a-myc (Homo sapiens, UniProt Q9UBR4 SEQ:1-397).
T4 sequence: T3 sequence
Description: EMSA; similar to untagged; more effective than hLhx3b-myc. To be noted: tags: C-terminal myc (pcDNA3.1/Myc-His); label: radiolabel. The protocol:
as §2, §3

Series [5] deals with T5, GST-hLhx3a (Homo sapiens, UniProt Q9UBR4 SEQ:1-397).
T5 sequence: T3 sequence
The experiment in a line: EMSA; reduced by 1000-fold unlabeled competitor. The note with it: tags: N-terminal GST (pGEX-KT); label: radiolabel. The protocol:
(§4) FIG. 18B is an image of a gel depicting an electrophoretic mobility shift assay (EMSA) using Lhx3 consensus binding site (lanes 1-12) or αGSU gene −350 to −323 binding site (lanes 13 and 14) as oligonucleotide probes. Radiolabeled probes were incubated with the indicated proteins and competitor DNAs and the resulting complexes were separated from free probe (F) by electrophoresis. Lane 1, unprogrammed rabbit reticulocyte lysate as a negative control (lysate); lanes 2-5 (hLhx3a; hLhx3b; hLhx3a-myc; and hLhx36-myc, respectively), reactions contained in vitro translated hLhx3 proteins including isoforms comprising a myc tag epitope. A nonspecific band is noted by an asterisk (*). Human Lhx3 protein/DNA complexes are indicated by an arrow. Lane 6 depicts the lack of binding using GST as a negative control; lanes 7-14 (GST-hLhx3a, more GST-hLhx3a, comp plus hLhx3a, GST-hLhx3b; more GST-hLhx3b, comp plus hLhx3b, GST-hLhx3a, and GST-hLhx36, respectively) depict binding of the DNA probe by recombinant hLhx3 proteins expressed in E. coli. “Comp” denotes reactions containing approximately 1000-fold molar excess of unlabeled binding site as a competitor.

Series [6] addresses T1, GST. Description: EMSA; GST negative control. To be noted: tags: GST alone, pGEX-KT; label: radiolabel. The protocol:
as §4
This is another data set of the same source.

Series [7] has as its target T3, hLhx3a. Description: EMSA; in vitro translated; text states more effective than hLhx3b at both sites. The note with it: label: radiolabel. The protocol: as §2, §3
Series [8] deals with T5, GST-hLhx3a. Description: EMSA; binds more effectively than GST-hLhx3b. The note with it: tags: N-terminal GST (pGEX-KT); label: radiolabel. The protocol:
as §4

T1 sequence (P08515 whole entry, one chain of several): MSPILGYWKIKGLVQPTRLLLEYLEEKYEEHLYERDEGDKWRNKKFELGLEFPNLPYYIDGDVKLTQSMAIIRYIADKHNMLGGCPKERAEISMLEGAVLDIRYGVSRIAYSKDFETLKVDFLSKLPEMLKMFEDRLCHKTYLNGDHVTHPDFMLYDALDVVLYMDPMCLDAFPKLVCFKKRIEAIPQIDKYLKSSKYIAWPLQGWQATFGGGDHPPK

B1: porcine αGSU -351/-324 wild type (dsDNA)
DNA 1: ACATTAGGTACTTAGCTAATTAAATGTG
DNA 2: CACATTTAATTAGCTAAGTACCTAATGT
Consider B1, for which the binding result with GST [1] is listed as “no binding”. In addition, in the series with GST-ΔLIM pLhx3 [2], the binding signal is at least 15 fold.

B2: porcine αGSU -351/-324 mutant (dsDNA)
DNA 1: ACATTAGGTACTTGGCGCGCCAAATGTG
DNA 2: CACATTTGGCGCGCCAAGTACCTAATGT
B2: in the series with GST-ΔLIM pLhx3 [3], the binding result is given as “no binding”.

B3: Lhx3 consensus binding site (dsDNA)
DNA 1: CAGAAAATTAATTAATTGTAA
DNA 2: TTACAATTAATTAATTTTCTG
For the molecule B3, the binding result was “binds” with hLhx3a [4], “binds” in the series with hLhx3a-myc, “binds” in the series with GST-hLhx3a [5] and “no binding” in the series with GST [6].

B4: αGSU -350/-323 (PGBE) (dsDNA)
DNA 1: ACATTAGGTACTTAGCTAATTAAATGTG
DNA 2: CACATTTAATTAGCTAAGTACCTAATGT
Turning to B4, the binding result with hLhx3a [7] and with GST-hLhx3a [8] was “binds” throughout.
